Format in all cases: biochemical, Entamoeba histolytica
The test system of one data set is recombinant EhPanK. Briefly: Regulation of EhPanK by CoA, acetyl CoA and malonyl CoA (double-reciprocal plots). Conditions: inhibitor 0, 0.5, 2 mM; for Mechanism of inhibition with respect to ATP: various ATP, 0.2 mM pantothenate; for Mechanism of inhibition with respect to pantothenate: various pantothenate, 100 μM ATP. From the text:
PanK from other organisms was reported to be negatively regulated by allosteric inhibition with CoA, acetyl CoA, and malonyl CoA ([Calder et al., 1999]; [Takagi et al., 2010]; [Vallari et al., 1987]). […] The mechanisms of inhibition by acetyl CoA were not clear but seemed to be the mixed type with respect to ATP and pantothenate (Fig. 3).
Fig. 2 Effect of CoA, acetyl CoA, and malonyl CoA on the pantothenate kinase activities. Relative activities of EhPanK in the presence of various concentrations of inhibitors to those without inhibitors are shown. […] The assays were carried out three times independently, and the results are shown as means ± SEM of triplicates.
Fig. 3 Double-reciprocal plots of the recombinant EhPanK in the presence of CoA (A and B), malonyl CoA (C and D), or acetyl CoA (E and F). The enzymatic activities were determined with various concentrations of ATP and 0.2 mM pantothenate (A, C, and E) or various concentrations of pantothenate and 100 μM ATP (B, D, and F), in the presence of three concentrations of inhibitors (0, 0.5, and 2 mM). Data are shown in means ± SEM of triplicate analyses.

Substrate in data set [1]: CC(C)(CO)[C@@H](O)C(=O)NCCC(=O)O
Put plainly: Kinetic parameters of recombinant EhPanK for its substrates. Conditions: other: apparent Km at saturating concentration of the other substrate, 37 °C, pH 6, mean ± SEM. The method, then: (§1) PanK and DPCK activities in the cell lysate were measured with coupled assays using ADP Hunter™ Plus Assay kit (DiscoverX, US) according to the manufacturer's instructions. […] Kinetic data were estimated by curve fitting with the Michaelis–Menten equation using GraphPad Prism (GraphPad Software Inc., San Diego, USA). This experiment was repeated three times in triplicate with proteins isolated from two independent extractions, and kinetic values are presented as the means ± S.E. for three independent kinetic assays.
(§2) Table 1 summarizes the apparent Km, Vmax, and Kcat values for EhPanK using pantothenate and ATP as substrates.
(§3) Fig. S5. Optimum pH and temperature (A) and initial rate plots (B, C) of EhPanK. B) The velocity of EhPanK reaction at various pantothenate concentrations in the presence of 25, 50, or 100 μM ATP. C). The velocity of EhPanK reaction at various ATP concentrations in the presence of 8, 64, or 128 μM pantothenate. […] Assays for panes B and C were conducted at 37 °C at pH 6. Data are shown in mean ± SEM of three replicates.

Substrate in data set [2]: Nc1ncnc2c1ncn2[C@@H]1O[C@H](COP(=O)(O)OP(=O)(O)OP(=O)(O)O)[C@@H](O)[C@H]1O
The data set is described as above. Conditions: other: apparent Km at saturating concentration of the other substrate, 37 °C, pH 6, mean ± SEM. The method, then: as §1, §2, §3

In the case of `CC(C)(COP(=O)(O)OP(=O)(O)OC[C@H]1O[C@@H](n2cnc3c(N)ncnc32)[C@H](O)[C@@H]1OP(=O)(O)O)[C@@H](O)C(=O)NCCC(=O)NCCSC(=O)CC(=O)O` [malonyl CoA], in the data set with recombinant EhPanK, the “Mechanism of inhibition with respect to ATP” value is “competitive” and the “Mechanism of inhibition with respect to pantothenate” value is “non-competitive”.

As for `CC(C)(COP(=O)(O)OP(=O)(O)OC[C@H]1O[C@@H](n2cnc3c(N)ncnc32)[C@H](O)[C@@H]1OP(=O)(O)O)[C@@H](O)C(=O)NCCC(=O)NCCS` [CoA, Coenzyme A], in the data set with recombinant EhPanK, the “Mechanism of inhibition with respect to ATP” value is “competitive” and the “Mechanism of inhibition with respect to pantothenate” value is given as “uncompetitive”.

For `CC(=O)SCCNC(=O)CCNC(=O)[C@H](O)C(C)(C)COP(=O)(O)OP(=O)(O)OC[C@H]1O[C@@H](n2cnc3c(N)ncnc32)[C@H](O)[C@@H]1OP(=O)(O)O` [acetyl CoA], in the data set on recombinant EhPanK, the “Mechanism of inhibition with respect to ATP” value is on record as “mixed type” and the “Mechanism of inhibition with respect to pantothenate” value is recorded as “mixed type”.

B1: E. histolytica pantothenate kinase (Entamoeba histolytica HM-1:IMSS) (protein)
chain: MSQPSHSIPSKHSVLSNEDIEHDDHITHTFEQYEFTKTQSPLPLNGVRRRTAPLSADMGGTMTKIVFWIPGDTDIDLPKYVEPEESVMSGFDLYPDPVLKVTMNSKGENELCFMKFPTSQIPEFIHYAKTSKLKEIYGIGNLQILNVTGGGAYKFANLLKDEMDLEVRQQDEMRCLVLGVNFLLLCCQEKLCFRFVNKTKLYREVTPEIFPYLLVNVGSGVSILKVTAPEKYERVSGSLIGGGTFWGLCCLLTNYKSFDEMLQAAQYGQHQNVDLYVKDIYGRCYDSVGLAADMMASSFGKIQKVPCGEAKNHYSEADIAQGLMMMVCGSIAHLGFELTKLHHINRIFYTGGFVAHNPVVWEAITTMLTTWSSGSVDANFLEYDGYFGSIGALLLSEYEEELM
For orientation: Km means the substrate concentration at which the rate is half of its maximum. For orientation: Vmax means the top rate of the reaction or transport when substrate is in excess. The kcat is the number of substrate molecules converted per active site and unit of time at saturation. What is called kcat/Km is the second-order rate constant that governs catalysis at low substrate concentration. Turning to B1, in data set [1], the Km was 53.2 ± 7.1 µM, the Vmax came out at 2.79 µmol/min/mg, the kcat was 2.11 ± 0.075 s⁻¹ and the catalytic efficiency (kcat/Km) was found to be 39700 ± 1330 M⁻¹ s⁻¹. For the same molecule, in data set [2], the Km stood at 41.4 ± 3.9 µM, the Vmax turned out to be 2.84 µmol/min/mg, the kcat is 2.15 ± 0.153 s⁻¹ and the kcat/Km came to 51800 ± 3670 M⁻¹ s⁻¹.

These data come from article PMC6114107, “Characterization and validation of Entamoeba histolytica pantothenate kinase as a novel anti-amebic drug target” (International Journal for Parasitology: Drugs and Drug …, 2018).
